Reference: patent US20240352113A1 (JIANGSU HENGRUI PHARMACEUTICALS, published 2024)

How the values were obtained:
Assay in all cases: cell-based or functional assay
[1] = target: T1, cynomolgus monkey ANGPTL3(17-460)-His (cynomolgus monkey, UniProt Q9Y5C1 17-460 (human entry), biotin-labeled in the ELISA and HTRF assays (sites not given))
T1 chain: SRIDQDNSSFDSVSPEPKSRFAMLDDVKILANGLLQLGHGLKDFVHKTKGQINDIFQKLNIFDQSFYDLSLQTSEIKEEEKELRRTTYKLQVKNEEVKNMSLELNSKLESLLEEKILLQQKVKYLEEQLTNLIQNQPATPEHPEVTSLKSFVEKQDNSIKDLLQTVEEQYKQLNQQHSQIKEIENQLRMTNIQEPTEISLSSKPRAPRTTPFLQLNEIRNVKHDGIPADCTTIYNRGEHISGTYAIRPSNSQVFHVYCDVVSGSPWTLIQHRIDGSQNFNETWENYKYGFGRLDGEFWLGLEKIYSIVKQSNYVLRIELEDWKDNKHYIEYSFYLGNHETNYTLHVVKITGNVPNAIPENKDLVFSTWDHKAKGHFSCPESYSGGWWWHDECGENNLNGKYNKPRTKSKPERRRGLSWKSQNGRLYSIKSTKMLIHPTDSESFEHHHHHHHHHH

[2] = target: T2, mouse ANGPTL3(17-455)-His (mouse, UniProt Q9R182 17-455, biotin-labeled in the ELISA and HTRF assays (sites not given))
T2 sequence: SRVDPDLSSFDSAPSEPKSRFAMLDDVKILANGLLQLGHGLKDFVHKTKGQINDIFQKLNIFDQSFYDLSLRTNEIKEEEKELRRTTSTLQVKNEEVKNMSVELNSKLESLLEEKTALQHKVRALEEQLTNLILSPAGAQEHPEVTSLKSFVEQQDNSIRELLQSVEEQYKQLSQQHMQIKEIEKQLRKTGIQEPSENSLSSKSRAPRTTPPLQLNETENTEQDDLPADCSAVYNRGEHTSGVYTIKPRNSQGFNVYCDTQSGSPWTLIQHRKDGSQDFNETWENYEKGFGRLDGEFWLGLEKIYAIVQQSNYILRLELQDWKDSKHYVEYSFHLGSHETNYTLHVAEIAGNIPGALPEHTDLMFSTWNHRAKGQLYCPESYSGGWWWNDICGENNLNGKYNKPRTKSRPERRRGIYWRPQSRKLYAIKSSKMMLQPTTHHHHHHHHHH

[3] = target: T3, human ANGPTL3(17-170)-Flag-His (human, UniProt Q9Y5C1 17-170)
T3 sequence: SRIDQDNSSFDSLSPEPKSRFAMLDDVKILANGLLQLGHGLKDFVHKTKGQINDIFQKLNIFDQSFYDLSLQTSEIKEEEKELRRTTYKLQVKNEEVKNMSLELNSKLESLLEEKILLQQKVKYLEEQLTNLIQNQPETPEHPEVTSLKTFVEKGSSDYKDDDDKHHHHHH

[4] = target: T4, rat ANGPTL3(17-455)-His (rat, biotin-labeled in the ELISA and HTRF assays (sites not given))
T4 chain: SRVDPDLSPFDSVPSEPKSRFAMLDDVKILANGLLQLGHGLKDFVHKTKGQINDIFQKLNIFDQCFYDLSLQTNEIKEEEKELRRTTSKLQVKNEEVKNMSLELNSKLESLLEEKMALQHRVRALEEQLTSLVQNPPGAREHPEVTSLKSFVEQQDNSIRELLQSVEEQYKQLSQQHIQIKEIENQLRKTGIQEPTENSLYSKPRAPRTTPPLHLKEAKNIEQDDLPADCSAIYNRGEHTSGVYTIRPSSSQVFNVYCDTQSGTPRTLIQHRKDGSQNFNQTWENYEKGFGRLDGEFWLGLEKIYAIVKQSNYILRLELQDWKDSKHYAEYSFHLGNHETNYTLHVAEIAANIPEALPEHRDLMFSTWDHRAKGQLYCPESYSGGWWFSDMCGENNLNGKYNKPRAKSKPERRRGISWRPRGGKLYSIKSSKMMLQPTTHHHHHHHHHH

B1: P8BG (antibody, human IgG4 S228P, kappa, V domains shown)
VH: QVQLVQSGAEVKKPGASVKVSCKASGYTFTSYDINWVRQAPGQGLEWVGLINPREDSTSYAQKFQGRVTMTRDTSTSTMYMELSSLRSEDTAVYFCARDLGSIREVLYYGMDVWGQGTTVTVSS
VL: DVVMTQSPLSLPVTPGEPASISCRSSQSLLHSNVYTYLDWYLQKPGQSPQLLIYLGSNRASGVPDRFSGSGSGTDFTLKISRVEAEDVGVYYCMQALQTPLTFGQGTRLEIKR
[1]
  IC50 (nM), activity in blocking the inhibition of LPL by ANGPTL3 (bovine LPL enzyme activity assay): 53.6 nM
[2]
  IC50 (nM), activity in blocking the inhibition of LPL by ANGPTL3 (bovine LPL enzyme activity assay): 41.5 nM
[3]
  IC50 (nM), activity in blocking the inhibition of LPL by ANGPTL3 (bovine LPL enzyme activity assay): 75.3 nM
[4]
  IC50 (nM), activity in blocking the inhibition of LPL by ANGPTL3 (bovine LPL enzyme activity assay): 132 nM
